Bridges are numbered along the chain shown (N, C = ends). Where no end group is shown, it is not given here. [ ]: non-standard residue; d: D form. The star is where a group is joined. Acetyl(2-(4-imidazolyl)) = O=C(Cc1c[nH]cn1)*; Aib = CC(C)(N)C(=O)O
T1: human GIP receptor (human, UniProt P48546 22-466)
T1 sequence (looked up): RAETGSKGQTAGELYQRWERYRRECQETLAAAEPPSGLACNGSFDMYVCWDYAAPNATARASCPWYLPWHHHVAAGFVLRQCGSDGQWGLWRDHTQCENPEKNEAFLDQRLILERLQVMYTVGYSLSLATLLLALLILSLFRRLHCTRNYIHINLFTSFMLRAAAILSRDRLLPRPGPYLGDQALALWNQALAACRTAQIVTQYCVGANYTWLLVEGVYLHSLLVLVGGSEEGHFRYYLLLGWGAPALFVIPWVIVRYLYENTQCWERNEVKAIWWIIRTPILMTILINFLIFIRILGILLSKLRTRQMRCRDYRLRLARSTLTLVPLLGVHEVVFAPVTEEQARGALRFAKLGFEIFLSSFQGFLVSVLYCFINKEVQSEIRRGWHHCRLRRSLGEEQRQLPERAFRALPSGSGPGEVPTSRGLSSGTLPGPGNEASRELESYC


How the values were obtained:
Assay in all cases: cell-based or functional assay
human GLP-1 receptor = human GLP-1 receptor (human, UniProt P43220 24-463)
human GCG receptor = human GCG receptor (human, UniProt P47871 26-477)
human GIP receptor = molecular target: T1, human GIP receptor

human GCG receptor, sequence (P47871 26-477): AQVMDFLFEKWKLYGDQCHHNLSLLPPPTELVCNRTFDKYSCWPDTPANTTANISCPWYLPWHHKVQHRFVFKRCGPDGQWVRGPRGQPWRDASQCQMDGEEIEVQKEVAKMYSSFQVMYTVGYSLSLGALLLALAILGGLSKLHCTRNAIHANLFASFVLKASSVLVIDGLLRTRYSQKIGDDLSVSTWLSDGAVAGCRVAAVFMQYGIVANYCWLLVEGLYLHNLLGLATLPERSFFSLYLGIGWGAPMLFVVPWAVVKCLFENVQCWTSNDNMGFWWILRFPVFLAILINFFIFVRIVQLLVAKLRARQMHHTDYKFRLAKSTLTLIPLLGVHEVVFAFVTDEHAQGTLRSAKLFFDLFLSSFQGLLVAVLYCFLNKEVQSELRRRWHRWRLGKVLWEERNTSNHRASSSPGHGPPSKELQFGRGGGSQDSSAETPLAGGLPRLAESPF

Row | Binder | In vitro activity (%) vs. GLP-1, cAMP EC50 (human GLP-1 receptor) [%] | In vitro activity (%) vs. Glucagon, cAMP EC50 (human GCG receptor) [%] | In vitro activity (%) vs. GIP, cAMP EC50 (human GIP receptor) [%]
1 | [Acetyl(2-(4-imidazolyl))]GQGTFTSDLSKQMDSERAREFIEWLKNTGPSSGAPPPSHG [triple agonist of SEQ ID NO: 18] | < 0.1 | < 0.1 | < 0.1
2 | [Acetyl(2-(4-imidazolyl))]GQGTFTSDLSIQYDSEHQRDFIEWLKDTGPSSGAPPPSHG [triple agonist of SEQ ID NO: 19] | < 0.1 | < 0.1 | < 0.1
3 | Y[Aib]QGTFTSDYSKCLDEKRAKEFVQWLLDHHPSSGQPPPS (bridge 16-20) [triple agonist of SEQ ID NO: 22] | 20.1 | 140 | 59.7
4 | [Acetyl(2-(4-imidazolyl))]GQGTFTSDLSKQMDSEAQQLFIEWLKNGGPSSGAPPPSHG [triple agonist of SEQ ID NO: 16] | 2.1 | < 0.1 | < 0.1
5 | H[Aib]QGTFTSDVSSYLDGQAQKEFIAWLVKGC [triple agonist of SEQ ID NO: 2] | 5.9 | < 0.1 | < 0.1
6 | H[Aib]QGTFTSDVSSYLLGQAAKQFIAWLVKGGGPSSGAPPPSC [triple agonist of SEQ ID NO: 3] | 1.8 | < 0.1 | < 0.1
7 | Y[Aib]QGTFTSDYSKYLDECRAKEFVQWLLDHHPSSGQPPPS (bridge 16-20) [triple agonist of SEQ ID NO: 21] | 17.8 | 267 | 22.7
8 | Y[Aib]QGTFTSDYSKALDEKAAKEFVQWLLDQHPSSGQPPPSC (bridge 16-20) [triple agonist of SEQ ID NO: 100] | 42.2 | 12.7 | 118
9 | H[Aib]QGTFTSDYSKYLDEKAQKEFVQWLLDTC (bridge 16-20) [triple agonist of SEQ ID NO: 30] | 142 | 0.7 | 0.8
10 | Y[Aib]QGTFTSDYSKYLDEKRAKEFVQWLLDCHPSSGQPPPS (bridge 16-20; ends not checked) [triple agonist of SEQ ID NO: 97] | 10.5 | 62.8 | 2.6
11 | [Acetyl(2-(4-imidazolyl))]GQGTFTSDYSIQLDEIAVRDFVEWLKNGGPSSGAPPPSHG [triple agonist of SEQ ID NO: 14] | 28 | < 0.1 | < 0.1
12 | Y[Aib]QGTFTSDYSKALDEKAAKEFVNWLLDHHPSSGQPPPSC (bridge 16-20; ends not checked) [triple agonist of SEQ ID NO: 98] | 28.1 | 8.2 | 47.1
13 | H[Aib]QGTFTSDYSKYLDEKACKEFVQWLLAQ (bridge 16-20) [triple agonist of SEQ ID NO: 31] | 135 | 2.2 | 2.4
14 | [Acetyl(2-(4-imidazolyl))]GEGTFISDLSKYMDEQAVQLFVEWLMAGGPSSGAPPPSHG [triple agonist of SEQ ID NO: 12] | 0.4 | < 0.1 | < 0.1
15 | Y[Aib]QGTFTSDYSKALDEKAAKEFVNWLLDQHPSSGQPPPSC (bridge 16-20) [triple agonist of SEQ ID NO: 101] | 23.2 | 13.9 | 40.1
16 | H[Aib]QGTFTSDYSIAMDEIHQKDFVNWLLAQKC (bridge 16-20) [triple agonist of SEQ ID NO: 33] | 24.5 | < 0.1 | 10.4
17 | [Acetyl(2-(4-imidazolyl))]GEGTFTSDLSKYLDSRRQQLFVQWLKAGGPSSGAPPPSHG [triple agonist of SEQ ID NO: 11] | 1.4 | < 0.1 | < 0.1
18 | [Acetyl(2-(4-imidazolyl))]GQGTFTSDLSIQYEEEAQQDFVEWLKDTGPSSGAPPPSHG [triple agonist of SEQ ID NO: 20] | < 0.1 | < 0.1 | < 0.1
19 | Y[Aib]QGTFTSDYSKALDEKAAKDFVNWLLDQHPSSGQPPPSC (bridge 16-20; ends not checked) [triple agonist of SEQ ID NO: 102] | 23.3 | 29.5 | 58
20 | H[Aib]QGTFTSDYSKYLDEKRAQEFVCWLLAQKGKKNDWKHNIT [triple agonist of SEQ ID NO: 28] | 17.2 | 1.6 | < 0.1
21 | [Acetyl(2-(4-imidazolyl))]GEGTFISDYSIQLDEIAVQDFVEWLLAQKPSSGAPPPSHG [triple agonist of SEQ ID NO: 13] | < 0.1 | < 0.1 | < 0.1
22 | [Acetyl(2-(4-imidazolyl))]GQGTFTSDLSKQMDEERAREFIEWLLAQKPSSGAPPPSHG [triple agonist of SEQ ID NO: 17] | 0.2 | < 0.1 | < 0.1
23 | H[Aib]QGTFTSDYSKYLDEKAAKEFVQWLLNTC (bridge 16-20) [triple agonist of SEQ ID NO: 29] | 38.5 | 6 | < 0.1
24 | Y[Aib]QGTFTSDYSKYLDECRAKEFVQWLLAQKGKKNDWKHNIT (bridge 16-20) [triple agonist of SEQ ID NO: 23] | 4.01 | 9.3 | < 0.1
25 | Y[Aib]QGTFTSDYSKALDEKAAKDFVNWLLDHHPSSGQPPPSC (bridge 16-20; ends not checked) [triple agonist of SEQ ID NO: 99] | 20.9 | 14.9 | 57.7
